Laboratory results reported in PMC9482650, “Quantitative fragmentomics allow affinity mapping of interactomes” (Nature Communications, 2022).

Assays:
Assay in all cases: holdup assay
Set-up in all cases: key: below the threshold = too weak to quantify, mostly under pKd 3.1 to 4
Settings in all cases: plain residues with an end cap or a label only (N-terminal biotin on a linker: ado-ado)
[1] = target: NHERF4_1, Q86UT5-2
[2] = target: T1, GRIP1_7, Q9Y3R0
T1 sequence (Q9Y3R0 999-1096, limits assumed, looked up): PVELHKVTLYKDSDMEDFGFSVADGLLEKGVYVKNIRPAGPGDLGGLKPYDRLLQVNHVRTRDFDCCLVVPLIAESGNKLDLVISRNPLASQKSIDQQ

[3] = target: SCRIB_1, Q14160
SCRIB_1, Q14160, sequence (Q14160 718-814): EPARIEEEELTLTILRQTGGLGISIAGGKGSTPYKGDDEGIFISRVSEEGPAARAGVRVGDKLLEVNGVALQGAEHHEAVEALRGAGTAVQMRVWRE

[4] = target: T2, GRIP1_3, Q9Y3R0
T2 sequence (Q9Y3R0 247-346, limits assumed, looked up): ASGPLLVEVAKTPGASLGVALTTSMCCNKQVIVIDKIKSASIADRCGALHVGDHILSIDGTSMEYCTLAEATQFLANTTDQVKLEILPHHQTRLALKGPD

[5] = target: GIPC2, Q8TF65
GIPC2, Q8TF65, sequence (Q8TF65 112-203): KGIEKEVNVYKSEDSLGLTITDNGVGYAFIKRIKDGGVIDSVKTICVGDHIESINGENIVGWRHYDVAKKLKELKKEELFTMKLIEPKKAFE

[6] = target: TJP1_3, Q07157
TJP1_3, Q07157, sequence (Q07157 416-512): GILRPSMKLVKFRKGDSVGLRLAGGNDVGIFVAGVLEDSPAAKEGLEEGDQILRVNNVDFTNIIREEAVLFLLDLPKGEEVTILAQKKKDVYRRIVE

[7] = target: LNX1_3, Q8TBB1
LNX1_3, Q8TBB1, sequence (Q8TBB1 500-596): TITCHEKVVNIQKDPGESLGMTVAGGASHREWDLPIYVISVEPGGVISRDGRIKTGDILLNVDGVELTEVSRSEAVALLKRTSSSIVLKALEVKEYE

[8] = target: MAGI1_2, Q96QZ7
MAGI1_2, Q96QZ7, sequence (Q96QZ7 456-580): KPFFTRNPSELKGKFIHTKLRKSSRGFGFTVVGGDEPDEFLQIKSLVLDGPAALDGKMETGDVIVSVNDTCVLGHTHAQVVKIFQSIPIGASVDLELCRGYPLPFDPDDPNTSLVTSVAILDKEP

[9] = target: IL16_1, Q14005
IL16_1, Q14005, sequence (Q14005 210-306): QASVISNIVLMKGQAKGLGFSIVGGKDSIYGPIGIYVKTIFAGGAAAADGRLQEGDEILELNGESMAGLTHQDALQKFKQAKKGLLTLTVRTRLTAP

[10] = target: T3, LRRC7, Q96NW7
T3 sequence (Q96NW7 1440-1537, limits assumed, looked up): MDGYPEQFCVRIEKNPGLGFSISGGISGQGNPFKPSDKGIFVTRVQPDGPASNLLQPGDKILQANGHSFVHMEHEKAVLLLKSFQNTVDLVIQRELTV

[11] = target: TJP1_2, Q07157
TJP1_2, Q07157, sequence (Q07157 181-274): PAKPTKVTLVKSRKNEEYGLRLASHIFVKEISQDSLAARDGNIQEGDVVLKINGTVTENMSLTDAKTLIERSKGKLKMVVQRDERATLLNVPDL

[12] = target: T4, LNX2_3, Q8N448
T4 sequence (Q8N448 463-564, limits assumed, looked up): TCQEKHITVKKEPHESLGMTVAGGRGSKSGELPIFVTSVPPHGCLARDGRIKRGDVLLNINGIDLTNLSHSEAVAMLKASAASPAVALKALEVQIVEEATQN

[13] = target: T5, MPDZ_12, O75970
T5 sequence (O75970 1857-1958, limits assumed, looked up): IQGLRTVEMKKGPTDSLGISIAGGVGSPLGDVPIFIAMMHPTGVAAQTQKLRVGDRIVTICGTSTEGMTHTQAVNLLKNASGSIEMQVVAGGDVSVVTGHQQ

[14] = target: Inadl_10, Q8NI35
Inadl_10, Q8NI35, sequence (Q8NI35 1673-1763): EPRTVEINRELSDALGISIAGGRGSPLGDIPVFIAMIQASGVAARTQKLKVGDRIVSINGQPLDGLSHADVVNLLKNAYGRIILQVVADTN

[15] = target: T6, CARD11, Q9BXL7
T6 sequence (Q9BXL7 662-765, limits assumed, looked up): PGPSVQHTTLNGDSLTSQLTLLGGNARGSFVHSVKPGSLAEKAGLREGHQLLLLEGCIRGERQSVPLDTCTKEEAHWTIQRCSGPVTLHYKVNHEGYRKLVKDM

[16] = target: PDZRN4_1, Q6ZMN7
PDZRN4_1, Q6ZMN7, sequence (Q6ZMN7 213-318): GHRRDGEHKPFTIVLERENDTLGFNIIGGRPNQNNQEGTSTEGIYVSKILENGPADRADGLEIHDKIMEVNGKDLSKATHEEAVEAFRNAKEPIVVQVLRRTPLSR

[17] = target: GRIP2_5, Q9C0E4
GRIP2_5, Q9C0E4, sequence (Q9C0E4 544-642): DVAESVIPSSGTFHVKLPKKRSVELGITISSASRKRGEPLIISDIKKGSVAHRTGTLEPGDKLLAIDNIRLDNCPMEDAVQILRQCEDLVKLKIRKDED

[18] = target: NHERF4_2, Q86UT5
NHERF4_2, Q86UT5, sequence (Q86UT5 220-308): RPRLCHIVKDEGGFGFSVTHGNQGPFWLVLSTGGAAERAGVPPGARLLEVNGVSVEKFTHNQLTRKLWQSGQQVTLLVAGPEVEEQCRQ

[19] = target: MAGI2_3, Q86UL8
MAGI2_3, Q86UL8, sequence (Q86UL8 600-682): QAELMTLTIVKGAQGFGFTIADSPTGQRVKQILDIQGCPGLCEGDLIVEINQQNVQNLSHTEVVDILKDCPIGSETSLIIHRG

[20] = target: T7, HTRA3, P83110
T7 sequence (P83110 354-453, limits assumed, looked up): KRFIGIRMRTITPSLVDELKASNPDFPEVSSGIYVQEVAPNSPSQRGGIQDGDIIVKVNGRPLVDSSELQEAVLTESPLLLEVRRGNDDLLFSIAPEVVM

[21] = target: T8, RHPN1, Q8TCX5
T8 sequence (Q8TCX5 508-602, limits assumed, looked up): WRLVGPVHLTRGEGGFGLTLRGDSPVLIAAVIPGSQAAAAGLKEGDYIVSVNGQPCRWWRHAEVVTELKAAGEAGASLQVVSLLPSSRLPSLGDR

[22] = target: T9, DVL3, Q92997
T9 sequence (Q92997 244-331, limits assumed, looked up): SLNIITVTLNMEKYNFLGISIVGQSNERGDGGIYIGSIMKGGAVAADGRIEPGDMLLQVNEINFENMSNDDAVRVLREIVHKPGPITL

[23] = target: DLG5_1, Q8TDM6
DLG5_1, Q8TDM6, sequence (Q8TDM6 617-713): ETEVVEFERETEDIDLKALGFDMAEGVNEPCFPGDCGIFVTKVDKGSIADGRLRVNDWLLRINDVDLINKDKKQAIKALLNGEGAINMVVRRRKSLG

[24] = target: GRASP, Q7Z6J2
GRASP, Q7Z6J2, sequence (Q7Z6J2 96-193): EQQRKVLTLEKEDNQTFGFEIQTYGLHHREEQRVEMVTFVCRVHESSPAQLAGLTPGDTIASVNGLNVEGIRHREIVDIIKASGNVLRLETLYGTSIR

[25] = target: LDB3, O75112
LDB3, O75112, sequence (O75112 1-94): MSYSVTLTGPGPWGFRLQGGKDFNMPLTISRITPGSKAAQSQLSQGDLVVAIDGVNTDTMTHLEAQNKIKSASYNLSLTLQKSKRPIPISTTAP

[26] = target: NHERF4_4, Q86UT5
NHERF4_4, Q86UT5, sequence (Q86UT5 464-550): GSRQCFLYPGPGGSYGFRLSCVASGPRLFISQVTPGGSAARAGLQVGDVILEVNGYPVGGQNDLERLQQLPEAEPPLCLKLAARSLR

[27] = target: T10, ARHGEF11, O15085
T10 sequence (O15085 42-136, limits assumed, looked up): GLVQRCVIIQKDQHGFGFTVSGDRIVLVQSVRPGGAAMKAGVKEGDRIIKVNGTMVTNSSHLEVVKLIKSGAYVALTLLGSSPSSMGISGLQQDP

[28] = target: LNX1_1, Q8TBB1
LNX1_1, Q8TBB1, sequence (Q8TBB1 261-371): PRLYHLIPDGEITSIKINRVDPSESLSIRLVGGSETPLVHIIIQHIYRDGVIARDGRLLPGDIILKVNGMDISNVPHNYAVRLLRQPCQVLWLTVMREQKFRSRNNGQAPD

NHERF4_1, Q86UT5-2, sequence (Q86UT5 other isoform, or with tags, fused parts or gaps): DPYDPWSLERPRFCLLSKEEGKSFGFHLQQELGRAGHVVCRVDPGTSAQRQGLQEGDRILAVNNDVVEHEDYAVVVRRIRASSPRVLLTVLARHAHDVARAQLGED

With GSSSKEGTSV [RRBP1, Q9P2E9] the pKd [1] was 3.51, the pKd [2] was “below the threshold” and the pKd [3] was “below the threshold”. The pKd [4] was “below the threshold”, the pKd [5] was “below the threshold” and the pKd [6] was “below the threshold”. For the same binder, the pKd [7] was “below the threshold”, the pKd [8] was 3.87 and the pKd [9] was “below the threshold”. The pKd [10] was “below the threshold”, the pKd [11] was “below the threshold” and the pKd [12] was “below the threshold”. The pKd [13] was “below the threshold”, the pKd [14] was “below the threshold” and the pKd [15] was “below the threshold”. The pKd [16] was 4.23, the pKd [17] was “below the threshold” and the pKd [18] was “below the threshold”. The pKd [19] was 3.54, the pKd [20] was “below the threshold” and the pKd [21] was 3.49. The pKd [22] was “below the threshold”, the pKd [23] was “below the threshold” and the pKd [24] was 3.49. The pKd [25] was “below the threshold”, the pKd [26] was 3.98 and the pKd [27] was 3.83. For the same binder, the pKd [28] was “below the threshold”.

VGIERETDVL [EZH1, Q92800] was tested, and the pKd [1] was 3.8, the pKd [2] was “below the threshold” and the pKd [3] was “below the threshold”. The pKd [4] was “below the threshold”, the pKd [5] was “below the threshold” and the pKd [6] was “below the threshold”. For the same binder, the pKd [7] was “below the threshold”, the pKd [8] was “below the threshold” and the pKd [9] was “below the threshold”. The pKd [10] was “below the threshold”, the pKd [11] was “below the threshold” and the pKd [12] was “below the threshold”. For the same binder, the pKd [13] was “below the threshold”, the pKd [14] was “below the threshold” and the pKd [15] was “below the threshold”. For the same binder, the pKd [16] was “below the threshold”, the pKd [17] was “below the threshold” and the pKd [18] was “below the threshold”. The pKd [19] was “below the threshold”, the pKd [20] was “below the threshold” and the pKd [21] was “below the threshold”. For the same binder, the pKd [22] was “below the threshold”, the pKd [23] was “below the threshold” and the pKd [24] was 4.36. For the same binder, the pKd [25] was “below the threshold”, the pKd [26] was “below the threshold” and the pKd [27] was “below the threshold”. For the same binder, the pKd [28] was “below the threshold”.

QLAEIAESGL [ITK, Q08881] was tested, and the pKd [1] was 3.91, the pKd [2] was “below the threshold” and the pKd [3] was 3.75. For the same binder, the pKd [4] was “below the threshold”, the pKd [5] was 3.63 and the pKd [6] was “below the threshold”. For the same binder, the pKd [7] was 3.66, the pKd [8] was “below the threshold” and the pKd [9] was 3.48. The pKd [10] was “below the threshold”, the pKd [11] was “below the threshold” and the pKd [12] was “below the threshold”. The pKd [13] was 3.53, the pKd [14] was “below the threshold” and the pKd [15] was “below the threshold”. For the same binder, the pKd [16] was 3.91, the pKd [17] was 3.65 and the pKd [18] was 3.57. The pKd [19] was 3.58, the pKd [20] was “below the threshold” and the pKd [21] was 3.83. For the same binder, the pKd [22] was “below the threshold”, the pKd [23] was 3.78 and the pKd [24] was 3.69. The pKd [25] was “below the threshold”, the pKd [26] was “below the threshold” and the pKd [27] was 4.05. For the same binder, the pKd [28] was 3.9.

In the case of EGGKKRESEA [APPL1, Q9UKG1], the pKd [1] is reported as “below the threshold”, the pKd [2] is reported as “below the threshold” and the pKd [3] is reported as “below the threshold”. For the same binder, the pKd [4] was “below the threshold”, the pKd [5] was “below the threshold” and the pKd [6] was “below the threshold”. For the same binder, the pKd [7] was “below the threshold”, the pKd [8] was “below the threshold” and the pKd [9] was “below the threshold”. For the same binder, the pKd [10] was “below the threshold”, the pKd [11] was “below the threshold” and the pKd [12] was “below the threshold”. The pKd [13] was 3.54, the pKd [14] was “below the threshold” and the pKd [15] was “below the threshold”. The pKd [16] was “below the threshold”, the pKd [17] was “below the threshold” and the pKd [18] was “below the threshold”. For the same binder, the pKd [19] was “below the threshold”, the pKd [20] was “below the threshold” and the pKd [21] was “below the threshold”. For the same binder, the pKd [22] was “below the threshold”, the pKd [23] was “below the threshold” and the pKd [24] was “below the threshold”. The pKd [25] was “below the threshold”, the pKd [26] was “below the threshold” and the pKd [27] was “below the threshold”. For the same binder, the pKd [28] was “below the threshold”.
